How the values were obtained:
Test in all cases: flow cytometry, transfected 293T cells
[1] = target: CHIKV E2-6K-E1 envelope proteins (strain S27) with E2 T212A (Chikungunya virus strain S27) (UniProt Q8JUX5)
[2] = target: CHIKV E2-6K-E1 envelope proteins (strain S27) with E2 K189A (Chikungunya virus strain S27) (UniProt Q8JUX5)
[3] = target: CHIKV E2-6K-E1 envelope proteins (strain S27) with E2 T191A (Chikungunya virus strain S27) (UniProt Q8JUX5)
[4] = target: CHIKV E2-6K-E1 envelope proteins (strain S27) with E2 S206A (Chikungunya virus strain S27) (UniProt Q8JUX5)
[5] = target: CHIKV E2-6K-E1 envelope proteins (strain S27) with E2 Q184A (Chikungunya virus strain S27) (UniProt Q8JUX5)
[6] = target: CHIKV E2-6K-E1 envelope proteins (strain S27) with E2 S185A (Chikungunya virus strain S27) (UniProt Q8JUX5)

Substance: Mxra8-Fc (mouse Mxra8 extracellular domain fused to mouse IgG2b Fc) (Fc fusion)
- Binding Reactivity (% WT) [1]: 94.6 % WT
- Binding Reactivity (% WT) [2]: 156 % WT
- Binding Reactivity (% WT) [3]: 87.4 % WT
- Binding Reactivity (% WT) [4]: 52.2 % WT
- Binding Reactivity (% WT) [5]: 130 % WT
- Binding Reactivity (% WT) [6]: 88.1 % WT
